{"source": "paper PMC8325321", "molecular_target": "recombinant importin α2-His (Laodelphax striatellus)", "test": "MST", "data": [{"substance": "NP-GST (natural protein)", "values": [{"measurement": "Kd", "result": 9.1, "unit": "µM"}]}]}
